One assay has as its target FZD5 CRD (UniProt Q13467). To be noted: cited from earlier work.
Assay [1] has as its target T1, Nluc-FZD6-K466K-Cy3 dimer mutant (D365A/R368A/Y369A) (human) (UniProt O60353).
T1 sequence (chain, trans-cyclooct-2-ene-L-lysine (TCO*K) at 466, labelled with Tet-Cy3): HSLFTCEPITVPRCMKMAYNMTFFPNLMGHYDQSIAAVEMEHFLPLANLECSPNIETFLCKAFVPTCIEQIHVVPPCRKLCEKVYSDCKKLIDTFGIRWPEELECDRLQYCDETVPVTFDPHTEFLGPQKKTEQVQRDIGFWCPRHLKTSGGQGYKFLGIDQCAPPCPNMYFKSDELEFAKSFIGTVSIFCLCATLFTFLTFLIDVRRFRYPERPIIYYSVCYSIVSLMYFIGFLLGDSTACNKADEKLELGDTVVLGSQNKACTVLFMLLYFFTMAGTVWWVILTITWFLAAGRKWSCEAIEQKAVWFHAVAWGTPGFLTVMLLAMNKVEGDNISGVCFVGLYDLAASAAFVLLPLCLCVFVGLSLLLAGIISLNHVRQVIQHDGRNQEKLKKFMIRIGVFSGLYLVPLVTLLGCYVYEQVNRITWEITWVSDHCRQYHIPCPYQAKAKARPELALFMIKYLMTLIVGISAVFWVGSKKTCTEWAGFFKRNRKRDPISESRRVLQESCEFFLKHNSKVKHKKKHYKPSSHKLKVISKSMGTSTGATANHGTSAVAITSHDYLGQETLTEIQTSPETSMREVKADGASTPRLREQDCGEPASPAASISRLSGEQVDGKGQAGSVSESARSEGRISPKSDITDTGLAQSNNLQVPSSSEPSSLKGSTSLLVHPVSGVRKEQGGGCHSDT

Assay [2] addresses Nluc-FZD6-K466K-Cy3 sensor (human) (UniProt O60353).
The target of assay [3] is Nluc-FZD5-Q493K-Cy3 sensor (human) (UniProt Q13467).
In assay [4] the target is Nluc-FZD6-K466K-Cy3 sensor (human) (UniProt O60353). The source holds these as a separate data set.
For assay [5] the target is unchanged. This is another data set of the same source.
Assay [6] deals with T2, Nluc-FZD6-Q171K-Cy3 sensor (human) (UniProt O60353).
T2 sequence (chain, trans-cyclooct-2-ene-L-lysine (TCO*K) at 171, labelled with Tet-Cy3): T1 sequence (chain, trans-cyclooct-2-ene-L-lysine (TCO*K) at 466, labelled with Tet-Cy3) with Q153K, A347D, A350R, A351Y

Numbering of substitutions follows the chain as printed. Values joined by “and” are separate entries in the source; they are usually repeats but may differ in a detail not shown here. Equal values may be shown once.

As usually defined, the Kd is a measure of binding affinity in units of concentration.

As to WNT-3A (from UniProt P56704), in the assay with FZD5 CRD, the Kd is 3.1 nM.

B1: recombinant WNT-5A (ligand)
chain: IIGAQPLCSQLAGLSQGQKKLCHLYQDHMQYIGEGAKTGIKECQYQFRHRRWNCSTVDNTSVFGRVMQIGSRETAFTYAVSAAGVVNAMSRACREGELSTCGCSRAARPKDLPRDWLWGGCGDNIDYGYRFAKEFVDARERERIHAKGSYESARILMNLHNNEAGRRTVYNLADVACKCHGVSGSCSLKTCWLQLADFRKVGDALKEKYDSAAAMRLNSRGKLVQVNSRFNSPTTQDLVYIDPSPDYCVRNESTGSLGTQGRLCNKTSEGMDGCELMCCGRGYDQFKTVQTERCHCKFHWCCYVKCKKCTEIVDQFVCK
With B1, the fitted plateau of the WNT-5A-induced BRET response of the sensor, HEK293T cells in assay [1] was -10.2%. Moreover, the fitted plateau of the WNT-5A-induced BRET response of the sensor (experiment beside the dimer mutant), HEK293T cells in assay [2] was -19.7%. For the same molecule, the maximal ∆BRET amplitude of the Cy3-labelled sensor upon WNT-5A (3 μg/ml), HEK293T cells in assay [3] was -15.6%. Besides, the EC50 of the WNT-5A-induced BRET signal of the sensor (concentration-response curve), HEK293T cells in assay [4] was 22.4 nM and 850 ng/ml. In addition, the figures for the fitted maximal ∆BRET amplitude of the Cy3-labelled sensor upon WNT-5A (3 μg/ml), HEK293T cells in assay [5] and in assay [6] were -26.4% and -11.6%, respectively.

The values above are taken from PMC8580317.
